# Laboratory results as given in patent publication US20200277349A1 (FRAUNHOFER GESELLSCHAFT ZUR F RDERUNG DER ANGEWANDTEN …, published 2020).
# B1: recombinant human truncated (cleaved) IL-38 (IL-38aa20-152) (ligand)
# chain: LYTRDGQLLVGDPVADNCCAEKICILPNRGLARTKVPIFLGIQGGSRCLACVETEEGPSLQLEDVNIEELYKGGEEATRFTFFQSSSGSAFRLEAAAWPGWFLCGPAEPQQPVQLTKESEPSARTKFYFEQSW
# notes: also called truncated IL-38
# B2: recombinant human full length IL-38 (IL-38aa1-152) (ligand)
# chain: MCSLPMARYYIIKYADQKALYTRDGQLLVGDPVADNCCAEKICILPNRGLARTKVPIFLGIQGGSRCLACVETEEGPSLQLEDVNIEELYKGGEEATRFTFFQSSSGSAFRLEAAAWPGWFLCGPAEPQQPVQLTKESEPSARTKFYFEQSW
# Assays:
# [1] = target: T1, human IL-1RAPL1 extracellular domain-Fc chimera (human, UniProt Q9NZN1 19-357); assay: plate binding assay on immobilized IL-1RAPL1 extracellular domain-Fc chimera (FIG. 7B)
# T1 construct: extracellular domain; Coated on 96 well plates at 0.5 ug; also called IL-1RAPL1-Fc; immobilized IL-1RAPL1; not shown: Fc part of the chimera
# T1 sequence (looked up): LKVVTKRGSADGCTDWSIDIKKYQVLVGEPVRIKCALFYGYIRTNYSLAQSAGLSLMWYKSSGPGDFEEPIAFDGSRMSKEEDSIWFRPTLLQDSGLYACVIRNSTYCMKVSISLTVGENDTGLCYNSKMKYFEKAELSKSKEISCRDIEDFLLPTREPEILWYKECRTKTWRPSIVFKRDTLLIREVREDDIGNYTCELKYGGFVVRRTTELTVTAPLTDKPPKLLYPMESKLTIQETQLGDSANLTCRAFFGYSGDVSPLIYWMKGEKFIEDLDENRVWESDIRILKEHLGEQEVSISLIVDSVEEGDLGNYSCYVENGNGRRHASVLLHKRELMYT
# Description: (§1) After 24 h IL-6 concentration in the supernatants was measured using cytometric bead array, normalized results are shown. Data are means±SEM, n=7. (B) Binding kinetics of full length and cleaved IL-38 to immobilized IL-1RAPL1. […] IL-38 binding to the extracellular domain of the receptors was detected using biotinylated monoclonal IL-38 antibody. Data are means±SEM, n=5.*p<0.05, ANOVA with Bonferroni's correction.
# (§2) The inventors performed a receptor binding assay as explained above. Both IL-38 isoforms bound to IL-1RAPL1 in this assay (FIG. 7B). However, binding kinetics seemed to differ slightly. […] IL-1RAPL1 knock-down in macrophages abrogated both, IL-6 induction by full-length 11-38 and IL-6 suppression by truncated IL-38 (FIG. 7C).
# [2] = target: T1, human IL-1RAPL1 extracellular domain-Fc …; assay: plate binding assay: IL-1RAPL1-Fc coated, IL-38 titrated, detected with biotinylated monoclonal IL-38 antibody
# Description: as §1, §2
Binder,binding result [1],binding result [2]
B1,binds,
B2,,binds
